Laboratory results: publication PMC6127106, “Apolipoprotein A-IV binds αIIbβ3 integrin and inhibits thrombosis” (Nature Communications, 2018)

Molecular target: purified human platelet αIIbβ3 integrin (human, UniProt P05106 27-788)
Experiment: ELISA; competition: αIIbβ3 (1 µg) immobilised on the plate, Fg 1 µM with apoA-IV 0–10 µM; TBS, 0.05% Tween-20, 1 mM each MgCl2, MnCl2, CaCl2; 1 h at 37 °C; anti-fibrinogen IgG and anti-mouse IgG-HRP
Conditions: both partners purified

B1: recombinant human apoA-IV (ligand, UniProt P06727 21-396, looked up)
chain: EVSADQVATVMWDYFSQLSNNAKEAVEHLQKSELTQQLNALFQDKLGEVNTYAGDLQKKLVPFATELHERLAKDSEKLKEEIGKELEELRARLLPHANEVSQKIGDNLRELQQRLEPYADQLRTQVSTQAEQLRRQLTPYAQRMERVLRENADSLQASLRPHADELKAKIDQNVEELKGRLTPYADEFKVKIDQTVEELRRSLAPYAQDTQEKLNHQLEGLTFQMKKNAEELKARISASAEELRQRLAPLAEDVRGNLRGNTEGLQKSLAELGGHLDQQVEEFRRRVEPYGENFNKALVQQMEQLRQKLGPHAGDVEGHLSFLEKDLRDKVNSFFSTFKEKESQDKTLSLPELEQQQEQQQEQQQEQVQMLAPLES
notes: apolipoprotein A-IV, human; also called rH-ApoA-IV; rH-apoA-IV; source: E. coli, purified (His GraviTrap IMAC, tag cut with TEV protease); not shown: His6, N-terminal, cleaved
B1 gave an IC50 of 1320 nM.
